In patent publication US20140193421A1 (EISAI R AND D MANAGEMENT, published 2014):
Where a chain is given by its changes, count along the chain named. Where no end group is shown, it is not given here. The star is where a group is joined. Biotin = O=C1N[C@H]2[C@H](CS[C@H]2CCCCC(=O)*)N1

T1: human XCR1 peptide 172-183 SSGCDYSELTWY (human)
T1 peptide: Biotin-GSGSSSGCDYSELTWY

T2: human XCR1 peptide 175-186 CDYSELTWYLTS (human)
T2 peptide: Biotin-GSGSCDYSELTWYLTS

T3: human XCR1 peptide 11-22 TFFYYDLQSQPC (human)
T3 peptide: Biotin-GSGSTFFYYDLQSQPC

T4: human XCR1 peptide 19-30 SQPCENQAWVFA (human)
T4 peptide: Biotin-GSGSSQPCENQAWVFA

T5: human XCR1-EGFP (human, UniProt P46094 1-333, EGFP fused to the receptor is not carried in the letters.)
T5 sequence: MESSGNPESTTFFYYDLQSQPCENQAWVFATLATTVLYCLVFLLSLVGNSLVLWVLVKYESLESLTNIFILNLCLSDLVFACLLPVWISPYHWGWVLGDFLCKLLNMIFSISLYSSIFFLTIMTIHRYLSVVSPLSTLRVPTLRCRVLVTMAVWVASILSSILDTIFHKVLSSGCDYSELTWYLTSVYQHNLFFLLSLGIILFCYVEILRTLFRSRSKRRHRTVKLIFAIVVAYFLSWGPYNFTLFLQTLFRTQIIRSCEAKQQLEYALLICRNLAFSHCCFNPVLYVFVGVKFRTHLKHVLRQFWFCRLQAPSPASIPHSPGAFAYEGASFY

B1: mouse anti-human XCR1 antibody (11H2) (antibody, IgG2a, V domains shown)
VH: EVQLQQSGPVLVKPGASVKMSCKASGYTFTDYYVNWVKQSHGASLEWIGVSNPKNGDKSYNQKFKGKATLTVDKSSSTAYMELNSLTSEDSAVYYCARGLYYAGTYGYFDVWGTGTTVTVSS
VL: DIQMTQATSSLSASLGDRVTISCRASQDISNYLNWYQQKPDGTVKLLIYYTSRLHSGVPSRFRGSGSGTDFSLTISNLEQEDIATYFCQQGKTLPRTLGGGTKLEIK
B2: mouse anti-human XCR1 antibody (2H6) (antibody, IgG2b, V domains shown)
VH: QAYLQQSGAELVRPGASVKMSCKASGYTFSSHNMHWIKQTLRQGLEWIGAIYPGKGNTSYNQKFKGKATLTVDKSSSTAYMQLSSLTSEDSAVYFCARWGSVVGDWYFDVWGTGTTVTVSS
VL: DVVVTQTPLSLPVSLGDQASISCRSSQSLVHSNGNTYLHWYLQKPGQSPKLLIYRVSNRFSGVPDRFSGSGLGRDFTLKISRVEAEDLGVYFCSQSTFVPWTFGGGTKLEIK
B3: mouse anti-human XCR1 antibody (5G7) (antibody, IgG2b, V domains shown)
VH: B2 VH with S30T, M34L, I37V, L41P, E46Q, K55N, S59A, E89D
VL: DVVMTQTPLSLPVTLGNQASIFCRSSLGLVHRNGNTYLHWYLQKPGQSPKLLIYKVSHRFSGVPDRFSGSGSGTDFTLKISRVEAEDLGVYFCSQSTHVPWTFGGGTKLEIK
notes: also called 5G7 Mab; parent antibody 5G7
B4: humanized anti-human XCR1 antibody HK1L2 (antibody, human IgG2, kappa, V domains shown)
VH: QVQLVQSGAEVKKPGASVKVSCKASGYTFTSHNLHWVRQAPGQRLEWMGAIYPGNGNTAYNQKFKGRVTITRDTSASTAYMELSSLRSEDTAVYYCARWGSVVGDWYFDVWGQGTLVTVSS
VL: DVVMTQSPLSLPVTLGQPASISCRSSLGLVHRNGNTYLHWFQQRPGQSPRLLIYKVSHRFSGVPDRFSGSGSGTDFTLKISRVEAEDVGVYYCSQSTHVPWTFGQGTKVEIKR
B5: humanized anti-human XCR1 antibody HK5L5 (antibody, human IgG2, kappa, V domains shown)
VH: B4 VH with R44G, I70M, A76T, A79V
VL: B4 VL with V2I, S7T, L15P, F41Y, Q42L, R44K, R50Q

Tests used:
[1] = target: T1, human XCR1 peptide 172-183 SSGCDYSELTWY; assay: peptide ELISA on streptavidin plates
Description: (§1) Streptavidin-coated microtiter plates (Perkin Elmer) were coated with 50 μg/mL of peptide per well in a volume of 50 μL, and incubated at room temperature for 1 hour. The peptide solution was removed and PBS⁻ containing 4% Block-Ace was added to each well and incubated overnight at 4° C. Each well was washed three times with an ELISA wash buffer (0.02% Tween20 in PBS−). Anti-human XCR1 antibodies (2H6, 5G7, or 11H2) were added to each well in amount of 10 μg/mL, and incubated for 6 hours at room temperature. Each well was washed three times with the ELISA wash buffer. Horseradish peroxidase-conjugated donkey anti-mouse IgG antibody (Jackson, #715-035-150), diluted 1:5,000 in the ELISA wash buffer, was added to each well and incubated for 1 hour at room temperature. Each well was washed three times with the ELISA wash buffer. TMBZ (3,3′,5,5′ tetramethyl benzidine; Sigma) was added to each well and incubated at room temperature. The reaction was stopped with 2NH₂SO₄, and A₄₅₀ₙₘ was measured by Arvo plate reader (PerkinElmer).

[2] = target: T2, human XCR1 peptide 175-186 CDYSELTWYLTS; assay: peptide ELISA on streptavidin plates
Description: as §1

[3] = target: T3, human XCR1 peptide 11-22 TFFYYDLQSQPC; assay: peptide ELISA on streptavidin plates
Description: as §1

[4] = target: T4, human XCR1 peptide 19-30 SQPCENQAWVFA; assay: peptide ELISA on streptavidin plates
Description: as §1

human XCR1-EGFP [5] = target: T5, human XCR1-EGFP; assay: cell-based or functional assay
human XCR1-EGFP [6] = target: T5, human XCR1-EGFP; assay: cell-based or functional assay; remark: listed apart in the source
human XCR1-EGFP [7] = target: T5, human XCR1-EGFP; assay: competitive ligand binding assay, FACS on human XCR1-EGFP BaF3 cells; competitor human XCL1-SSS-His(10) at 0.12 µg/mL
Description: The competitive ligand binding assay was performed according to the following procedure. Parent BaF3 cells and human XCR1-EGFP-expressing BaF3 cells were mixed at a 1:1 ratio, and suspended in a FACS buffer (1% FBS-containing PBS⁻ (Sigma)). The cells were blocked for 10 minutes on ice with a FACS buffer containing 10% rat serum. The cells were then incubated for 20 minutes on ice with mouse anti-human XCR1 antibodies (2H6, 5G7, or 11H2), mouse isotype control antibodies, IgG2a (eBioscience, #16-4724-85), or IgG2b (eBioscience, #16-4732-85) at various concentrations from 0 to 150 μg/mL. Next the cells were incubated for 30 minutes on ice with human XCL1-SSS-His(10) at a saturating concentration of 0.12 μg/mL. The cells were washed with the FACS buffer three times, and then incubated for 20 minutes on ice with anti-6×His tag antibody (BETHYL, #A190-114A, diluted at 1:100 in FACS buffer). […] Next the cells were once again washed three times with the FACS buffer, and then suspended in FACS buffer. The fluorescence intensity was measured using a FACSCanto II cell analyzer (BD Bioscience).

human XCR1-EGFP [8] = target: T5, human XCR1-EGFP; assay: cell-based or functional assay; remark: listed apart in the source

Binder	binding result [1]	binding result [2]	binding result [3]	binding result [4]	IC50 of growth suppression with saporin-conjugated Fab anti-mouse IgG secondary antibody (human XCR1-EGFP [5])	concentration of complete inhibition of cell migration, chemotaxis assay (human XCR1-EGFP [5])	IC50 (nM), chemotaxis assay (human XCR1-EGFP [6])	IC90 (nM), chemotaxis assay (human XCR1-EGFP [6])	IC50 (human XCR1-EGFP [7])	IC50 (nM), chemotaxis assay, Assay-1 (human XCR1-EGFP [8])	IC50 (nM), chemotaxis assay, Assay-2 (human XCR1-EGFP [8])	IC50 (nM), chemotaxis assay, Assay-3 (human XCR1-EGFP [8])
B1	no binding (tested: 10 µg/mL)	no binding (tested: 10 µg/mL)	no binding (tested: 10 µg/mL)	no binding (tested: 10 µg/mL)	0.155 nM	~3 µg/mL	0.99 nM	6.32 nM	23.8 nM			
B2					0.141 nM	~3 µg/mL	1.28 nM	7.6 nM	37 nM			
B3					0.017 nM	~3 µg/mL	0.63 nM	2.52 nM	6.9 nM			
B4										0.1 nM	0.25 nM	0.12 nM
B5										0.52 nM	0.36 nM	0.2 nM
